Assay results published in patent publication US20200078441A1 (TAIPEI VETERANS GENERAL HOSPITAL, published 2020).

B1: PepSpot array peptide 12 (peptide)
peptide: VERTPLPSAPVLPEL
notes: 15-mer of the MSI1 C-terminus spotted on the PepSpot membrane; also called Index 12
B2: PepSpot array peptide 15 (peptide)
peptide: AYGPMAAAAAAAAVV
notes: 15-mer of the MSI1 C-terminus spotted on the PepSpot membrane; also called Index 15
B3: PepSpot array peptide 22 (peptide)
peptide: ELYGAANQDSGVSSY
notes: 15-mer of the MSI1 C-terminus spotted on the PepSpot membrane; also called Index 22
B4: PepSpot array peptide 16 (peptide)
peptide: AAAAAAVVRGTGSHP
notes: 15-mer of the MSI1 C-terminus spotted on the PepSpot membrane; also called Index 16
B5: PepSpot array peptide 14 (peptide)
peptide: LTAIPLTAYGPMAAA
notes: 15-mer of the MSI1 C-terminus spotted on the PepSpot membrane; also called Index 14
B6: PepSpot array peptide 13 (peptide)
peptide: SAPVLPELTAIPLTA
notes: 15-mer of the MSI1 C-terminus spotted on the PepSpot membrane; also called Index 13
B7: PepSpot array peptide 21 (peptide)
peptide: TSPGPMAELYGAANQ
notes: 15-mer of the MSI1 C-terminus spotted on the PepSpot membrane; also called Index 21
B8: PepSpot array peptide 23 (peptide)
peptide: QDSGVSSYISAASPA
notes: 15-mer of the MSI1 C-terminus spotted on the PepSpot membrane; also called Index 23

Molecular target: T1, recombinant His-tagged AGO2 protein (human Argonaute 2, baculovirus-expressed) (human, UniProt Q9UKV8 1-859)
T1 construct: Expressed in High Five insect cells and purified on nickel resin; also called His-AGO2; HisAGO2
T1 sequence (Q9UKV8 other isoform, or with tags, fused parts or gaps limits assumed): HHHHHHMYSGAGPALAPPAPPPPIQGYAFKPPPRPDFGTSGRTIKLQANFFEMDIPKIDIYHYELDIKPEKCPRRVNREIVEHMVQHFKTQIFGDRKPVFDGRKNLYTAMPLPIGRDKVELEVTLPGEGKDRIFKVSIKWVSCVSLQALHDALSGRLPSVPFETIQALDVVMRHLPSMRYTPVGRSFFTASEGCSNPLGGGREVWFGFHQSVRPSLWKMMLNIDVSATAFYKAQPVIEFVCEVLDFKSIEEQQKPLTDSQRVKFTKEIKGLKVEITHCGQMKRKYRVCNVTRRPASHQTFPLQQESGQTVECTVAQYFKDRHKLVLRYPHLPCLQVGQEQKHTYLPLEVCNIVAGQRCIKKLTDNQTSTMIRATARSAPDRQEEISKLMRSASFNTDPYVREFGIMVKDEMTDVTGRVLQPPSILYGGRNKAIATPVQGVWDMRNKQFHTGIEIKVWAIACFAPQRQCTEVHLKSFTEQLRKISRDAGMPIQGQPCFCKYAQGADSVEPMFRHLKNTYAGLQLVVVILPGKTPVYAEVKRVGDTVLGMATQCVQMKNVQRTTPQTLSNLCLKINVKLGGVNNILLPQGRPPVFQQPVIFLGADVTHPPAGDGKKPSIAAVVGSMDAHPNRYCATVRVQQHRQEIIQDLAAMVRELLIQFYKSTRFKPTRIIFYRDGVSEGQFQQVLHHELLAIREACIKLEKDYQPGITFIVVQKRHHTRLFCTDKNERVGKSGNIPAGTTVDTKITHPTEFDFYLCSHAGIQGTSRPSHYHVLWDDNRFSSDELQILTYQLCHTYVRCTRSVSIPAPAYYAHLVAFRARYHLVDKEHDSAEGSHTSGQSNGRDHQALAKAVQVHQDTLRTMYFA
Assay: PepSpot peptide array incubated with recombinant His-tagged AGO2 (2 µg), detected with anti-His-HRP
Description: The association rate constant (Kₐ), dissociation rate constant (Kd), and equilibrium dissociation constant (KD) were calculated and presented in the chart (bottom).

Row | Binder | binding result
1 | B1 | no binding
2 | B2 | no binding
3 | B3 | no binding
4 | B4 | no binding
5 | B5 | no binding
6 | B6 | no binding
7 | B7 | no binding
8 | B8 | no binding
